Source: patent US20210023129A1, “PLATINUM PRODRUG PERFLUOROARYL PEPTIDE CONJUGATES” (MASSACHUSETTS INSTITUTE OF TECHNOLOGY, priority 2019, published 2021)
*1 amine or outer side, *2 acyl side, *3 side chain or, on linkers, in order; H or OH if unused. Where a SMILES comes first, the peptide text is derived from it. Bridges are numbered along the chain shown (N, C = ends). Perfluorobiphenyl(4,4') = Fc1c(F)c([*:1])c(F)c(F)c1-c1c(F)c(F)c([*:2])c(F)c1F; Suc = O=C(CCC(=O)[*:2])[*:1]

Assays:
[1] = system: G9 neurospheres (patient-derived glioma cells); conditions: for IC50: read-out: IC50 against the G9 cells, treated for 80 hours, CellTiter-Glo
Procedure: The cytotoxicity of the PtIV-M13 conjugate was evaluated against patient-derived glioma cells (GCs). To evaluate the in vitro efficacy of the conjugate, G9 neurospheres were treated with PtIV-M13, prodrug 4, and cisplatin for 80 hours. After treatment, the potency of the compounds was assessed by the CellTiter-Glo luminescent cell viability assay (FIGS. 2A and 2B). The assay involves lysis of the cells and quantitation of the amount of ATP present, which is directly proportional to the number of living cells in culture. […] The same experiment was repeated on G30 GCs.

[2] = system: G30 GCs (patient-derived glioma cells); experiment: CellTiter-Glo luminescent cell viability assay, G30 GCs; format: cell-based, human; conditions: same experiment as G9 (80 hours, CellTiter-Glo), read-out: IC50 (potency) on G30 GCs
Procedure: The cytotoxicity of the PtIV-M13 conjugate was evaluated against patient-derived glioma cells (GCs). To evaluate the in vitro efficacy of the conjugate, G9 neurospheres were treated with PtIV-M13, prodrug 4, and cisplatin for 80 hours. After treatment, the potency of the compounds was assessed by the CellTiter-Glo luminescent cell viability assay (FIGS. 2A and 2B). The assay involves lysis of the cells and quantitation of the amount of ATP present, which is directly proportional to the number of living cells in culture. […] However, prodrug 4 was not potent, perhaps due to an inability to enter cells (FIG. 2A). As a result, in the follow-up in vitro experiment with another GC line, PtIV-L13 was used as a control instead as this should have similar properties to the PtIV-M13, only without the perfluoroaryl. The same experiment was repeated on G30 GCs.

[3] = Pharmacokinetics in healthy mice: platinum in serum and brain by GFAAS; conditions: tail vein; for brain distribution of platinum over time / serum concentration of platinum over time: 100 μL of 100 μM (~2.5 mg/kg), 1, 2.5 and 5 hours
Procedure: Pharmacokinetic and biodistribution studies were performed in healthy mice. For pharmacokinetics, 100 μL of a 100 μM solution of PtIV-M13 or PtIV-L13 dissolved in saline (corresponding to a dose of ˜2.5 mg/kg) were injected into the tail veins of mice. The brain and a blood sample were isolated at 1, 2.5, and 5 hours. A portion of the brain was dissolved in nitric acid and the amount of platinum in the brain and serum were quantified by GFAAS. […] The error bars are the standard deviation from three different animals injected with the compound. […] The error bars are the standard deviation from three different animals injected with the compound.

[4] = Biodistribution in mice: platinum in organs by GFAAS; conditions: tail vein, 100 μL of 100 μM in saline, after five hours
Procedure: To study the biodistribution, 100 μL of a 100 μM solution of PtIV-M13, PtIV-L13, or cisplatin dissolved in normal saline were injected into the tail vein of mice. After five hours, the mice were sacrificed and the brain, heart, lungs, kidney, spleen and liver were removed. The amount of platinum in each organ was measured by dissolving a portion of the respective organ in nitric acid and then quantifying the amount of platinum by GFAAS (supporting information).

Compound | IC50 against the G9 cells ([1]; treated for 80 hours, CellTiter-Glo) | IC50 [1] | IC50 [2] | brain distribution of platinum over time [3] | serum concentration of platinum over time [3] | brain uptake versus linear control PtIV-L13 ([3]; ~2.5 mg/kg, brain platinum read-out) | stability in serum versus linear control PtIV-L13 ([3]; ~2.5 mg/kg, serum platinum read-out) | increase in the amount of platinum in the brain compared with cisplatin [4]
CCCCNC(=O)[O][Pt]([NH2])([NH2])([Cl])([Cl])[O]C(=O)CCC(=O)O [prodrug 4] | not potent | – | – | – | – | – | – | –
N.N.[Cl][Pt][Cl] [cisplatin, reference compound] | – | 4.34 ± 0.66 µM | – | – | – | – | – | –
CC[C@H](C)[C@H](NC(=O)[C@H](CCCCN)NC(=O)CNC(=O)[C@H](CC(C)C)NC(=O)[C@H](CC(C)C)NC(=O)[C@H](Cc1ccc(O)cc1)NC(=O)CNC(=O)[C@H](C)NC(=O)CCC(=O)O)C(=O)N[C@@H](CC(N)=O)C(=O)N[C@@H](CC(C)C)C(=O)N[C@@H](CCCCN)C(=O)N[C@@H](C)C(=O)N[C@H]1CSc2c(F)c(F)c(c(F)c2F)-c2c(F)c(F)c(c(F)c2F)SC[C@@H](C(=O)N[C@@H](CC(C)C)C(N)=O)NC(=O)[C@H](CCCCN)NC(=O)[C@H](CCCCN)NC(=O)[C@H](C)NC(=O)[C@H](CC(C)C)NC(=O)[C@H](C)NC(=O)[C@H](C)NC1=O [PtIV-M13] (Suc-AGYLLGKINLKACAALAKKCL-NH2; linker 13-20 via Perfluorobiphenyl(4,4')) | – | 4.51 ± 0.22 µM | 4.04 µM | increased over time | decreased over time | more brain uptake | more stable in serum | 15 fold
CC[C@H](C)[C@H](NC(=O)[C@H](CCCCN)NC(=O)CNC(=O)[C@H](CC(C)C)NC(=O)[C@H](CC(C)C)NC(=O)[C@H](Cc1ccc(O)cc1)NC(=O)CNC(=O)[C@H](C)NC(=O)CCC(=O)O)C(=O)N[C@@H](CC(N)=O)C(=O)N[C@@H](CC(C)C)C(=O)N[C@@H](CCCCN)C(=O)N[C@@H](C)C(=O)N[C@@H](CO)C(=O)N[C@@H](C)C(=O)N[C@@H](C)C(=O)N[C@@H](CC(C)C)C(=O)N[C@@H](C)C(=O)N[C@@H](CCCCN)C(=O)N[C@@H](CCCCN)C(=O)N[C@@H](CO)C(=O)N[C@@H](CC(C)C)C(N)=O [PtIV-L13] (Suc-AGYLLGKINLKASAALAKKSL-NH2) | – | – | 28.8 µM | increased over time | decreased over time | – | – | –
